Experimental data reported in PMC3649970, “A Unique Spumavirus Gag N-terminal Domain with Functional Properties of Orthoretroviral Matrix and Capsid” (PLoS Pathogens, 2013).
Ends that are not written are not given here.

B1: PFV-Gag-NtD (amino terminal domain of Prototypic Foamy Virus Gag, residues 1-179) (domain or fragment)
chain: MASGSNVEEYELDVEALVVILRDRNIPRNPLHGEVIGLRLTEGWWGQIERFQMVRLILQDDDNEPLQRPRYEVIQRAVNPHTMFMISGPLAELQLAFQDLDLPEGPLRFGPLANGHYVQGDPYSSSYRPVTMAETAQMTRDELEDVLNTQSEIEIQMINLLELYEVETRALRRQLAERS
notes: source: E. coli Rosetta 2 (DE3), purified (Ni-NTA, Superdex 200 SEC); not shown: His-tag, N-terminal, kept

What was measured:
[1] = biological target: FFV-Gag-NtD (feline foamy virus Gag residues 1-154), His-tagged (feline foamy virus (FFV)); test: AUC
[2] = biological target: FFV-Gag-NtD (feline foamy virus Gag residues 1-154), His-tagged (feline foamy virus (FFV)); test: SEC-MALS
[3] = biological target: FFV-Gag-NtD (feline foamy virus Gag residues 1-154), His tag removed (feline foamy virus (FFV)); test: AUC
PFV-Gag-NtD = biological target: T1, PFV-Gag-NtD (Human spumaretrovirus, UniProt P14349); test: ITC binding of Env1–20 to PFV-Gag-NtD; design: species or system Prototypic Foamy Virus (PFV); settings: 1 mM Env peptide injected into 50 µM PFV-Gag-NtD, 25 mM Na-phosphate pH 6.55, 100 mM NaCl, 0.5 mM TCEP, read-out: equilibrium association constant (K) (converted)
T1 construct: HFV ht-(M1-S179); made in house; host or cells: E. coli Rosetta 2 (DE3)
T1 sequence (P14349 1-179): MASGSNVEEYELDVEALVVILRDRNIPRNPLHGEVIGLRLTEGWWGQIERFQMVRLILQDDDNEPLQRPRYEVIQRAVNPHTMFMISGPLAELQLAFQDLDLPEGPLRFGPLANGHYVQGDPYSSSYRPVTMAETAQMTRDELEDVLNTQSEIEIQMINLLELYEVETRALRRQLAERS
Description: The DNA sequences coding for PFV-Gag residues 1–179 (PFV-Gag-NtD) and FFV residues 1–154 (FFV-Gag-NtD) were amplified by PCR from template plasmids pcziGag4 and pcDWF003 containing the PFV and FFV Gag genes respectively. PCR products were inserted into a pET47b expression vector (Novagen) using ligation independent cloning in order to produce N-terminal His-tag fusions with 3C protease cleavage sites. The correct sequence of expression constructs was verified by automated DNA sequencing (Beckman Coulter Genomics). His-tagged PFV- and FFV-Gag-NtD were expressed in the E. coli strain Rosetta 2 (DE3) and purified using Ni-NTA affinity (Qiagen) and size exclusion chromatography on Superdex 200 (GE healthcare). Selenium was incorporated into PFV-Gag-NtD by replacement of methionine with seleno-methionine in defined culture medium and by inhibition of methionine biosynthesis just prior to IPTG induction. Verification of the processed N-terminal methionine, correct molecular mass and degree of selenium incorporation was obtained by electrospray ionisation mass-spectrometry. Peptides comprising residues 1–20 and 5–18 from the PFV-Env leader region were purchased HPLC purified from Pepceuticals Ltd.
ITC was carried out using an ITC-200 calorimeter (MicroCal). […] Data was analysed using the Origin-based software provided by the manufacturers.

[4] = biological target: FFV Env leader peptide 1-30 (Feline foamy virus) (UniProt O56861); test: given as Ka; settings: cited from earlier work
SEC-MALS = biological target: the molecule itself; test: SEC-MALS
[5] = test system: PFV Env leader peptide (Env-LP), Env1–20; test: SV-AUC binding of PFV-Gag-NtD mutants to Env1–20 (Env-LP); design: species or system Prototypic Foamy Virus (PFV); settings: for Gag-Env binding (in words): 75 µM equimolar Gag-NtD mutant and Env1–20
Procedure: (§1) Sedimentation velocity experiments were performed in a Beckman Optima Xl-I analytical ultracentrifuge using conventional aluminium double sector centrepieces and sapphire windows. Solvent density and the protein partial specific volumes were determined as described. Prior to centrifugation, samples were prepared by exhaustive dialysis against the buffer blank solution, 20 mM Tris-HCl, 150 mM NaCl and 0.5 mM TCEP, pH 7.5. Centrifugation was performed at 50,000 rpm and 293 K in an An50-Ti rotor. Interference data were acquired at time intervals of 180 sec at varying sample concentration (0.5–2.5 mg/ml). Data recorded from moving boundaries was analysed using both a discrete species model and in terms of the size distribution functions C(S) using the program SEDFIT [90], [91], [92]. For analysis of Env peptide binding, sedimentation velocity experiments were conducted in 3 mm pathlength centrepieces using equimolar mixtures (75 µM) of PFV-Gag-NtD and Env peptides. In these experiments, radial absorbance scans at 280 nm were also recorded along with the interference data.
Data were analysed using a general binding expression, Eq. 1. This expression relates the association constant Ka to the fraction of bound peptide θ (θ = [PL]/[Lt]) in terms of the total concentrations of peptide [Lt] and protein [Pt] and is a modification of the formulae employed in [95], [96]. [drawing 1] (1) In sedimentation velocity experiments θ was determined from the integrated absorbance of the 3S species in the C(S) function that best fits the sedimentation data. As equimolar ratios of peptide and protein were employed ([Lt] = [Pt]) Eq. 1 can be simplified and equilibrium association constants determined from Eq. 2. [drawing 2] (2)

[6] = SEC-MALLS solution molecular weight of Gag-NtDs; type: physicochemical; settings: Superdex 200 10/300 GL, 20 mM Tris-HCl, 150 mM NaCl, 0.5 mM TCEP, pH 8.0; 12-1.5 mg/ml, concentration invariant
Procedure: Size exclusion chromatography coupled multi-angle laser light scattering (SEC-MALLS) was used to determine the molar mass of FFV- and PFV-Gag-Ntd. Samples ranging from 1.5 to 12.0 mgml^−1 were applied in a volume of 100 µl to a Superdex 200 10/300 GL column equilibrated in 20 mM Tris-HCl, 150 mM NaCl and 0.5 mM TCEP, pH 8.0, at a flow rate of 0.5 ml/min. The scattered light intensity and the protein concentration of the column eluate were recorded using a DAWN-HELEOS laser photometer and OPTILAB-rEX differential refractometer respectively. The weight-averaged molecular mass of material contained in chromatographic peaks was determined from the combined data from both detectors using the ASTRA software version 6.0.3 (Wyatt Technology Corp., Santa Barbara, CA, USA).

[7] = Sedimentation velocity AUC of Gag-NtDs; type: physicochemical; settings: for ƒ/ƒ0 (D20,w): frictional ratio calculated from D20,w; for ƒ/ƒ0 (D20,w) / ƒ/ƒ0 (S20,w): discrete component analysis; for ƒ/ƒ0 (S20,w): frictional ratio calculated from S20,w; for sedimentation coefficient S20,w: no concentration dependency over the range measured; for D20,w (×10^7) / Mw C(S) / S20,w (×10^13): sedimentation velocity; for D20,w (×10^7) / S20,w (×10^13): 293 K, pH 7.5, Crange 20–90 µM (PFV), 30–130 µM (FFV); for Mw C(S): C(S) analysis; for S20,w (×10^13): discrete component analysis, 50,000 rpm; for Mw (S/D): weight averaged molecular weight from discrete component analysis; for ƒ/ƒ0 C(S): weight-averaged frictional ratio from best fit C(S) distribution function
Procedure: as §1

[8] = Sedimentation equilibrium AUC of Gag-NtDs; type: physicochemical; settings: for weight averaged molecular weight, sedimentation equilibrium: multispeed, global fit with single ideal molecular species model; for Mw (sedimentation equilibrium): weight averaged, Global SE analysis, pH 7.5
Procedure: Sedimentation equilibrium experiments were performed in a Beckman Optima XL-I analytical ultracentrifuge using charcoal filled Epon six-channel centrepieces in an An-50 Ti rotor. Prior to centrifugation, samples were dialyzed exhaustively against the buffer blank, 20 mM Tris-HCl, pH 7.5, 150 mM NaCl, 0.5 mM TCEP. After centrifugation for 18 h, interference data was collected 2-h intervals until no further change in the profiles was observed. The rotor speed was then increased and the procedure repeated. Data were collected on samples of different concentrations of FFV- and PFV-Gag-NtD (14–100 µM) at three speeds and the program SEDPHAT [93], [94] was used to determine weight-averaged molecular masses by nonlinear fitting of individual multi-speed equilibrium profiles (A versus r) to a single-species ideal solution model.

[9] = biological target: T2, PFV-Gag-NtD (amino terminal domain of Prototypic Foamy Virus Gag, residues 1-179) (Prototypic foamy virus (PFV), UniProt P14349 1-179); test: AUC
T2 chain: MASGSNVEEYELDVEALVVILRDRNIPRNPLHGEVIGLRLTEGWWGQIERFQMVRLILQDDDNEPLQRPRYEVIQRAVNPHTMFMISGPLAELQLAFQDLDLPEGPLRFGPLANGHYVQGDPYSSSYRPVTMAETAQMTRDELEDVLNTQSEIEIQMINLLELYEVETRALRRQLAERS

[10] = biological target: B1; test: AUC; sedimentation velocity of 75 µM equimolar mixtures of Gag-NtD and Env peptide, absorbance at 280 nm; bound fraction from the integrated absorbance of the 3S species in C(S); settings: both partners purified

“FFV-Gag-NtD (feline foamy virus Gag residues 1-154), His-tagged (domain or fragment)” showed a stoichiometry N [1] of 2 and a stoichiometry N [2] of 2.

Molecule “FFV-Gag-NtD (feline foamy virus Gag residues 1-154), His tag removed (domain or fragment)” has a stoichiometry N [3] of 2.

MAPPMTLQQWIIWKKMNKAH [Env1–20] showed a Kd (PFV-Gag-NtD) of 6.67 µM.

For FFV Gag (from UniProt O56860), the Kd [4] is listed as 15.4 µM.

For B1, the “stoichiometry N” value (SEC-MALS) was 2.

B2: triple substitution where Val14, Val18 and Leu21 were all substituted by serine (protein, UniProt P14349 1-179, looked up, variant V14S V18S L21S)
chain: MASGSNVEEYELDSEALSVISRDRNIPRNPLHGEVIGLRLTEGWWGQIERFQMVRLILQDDDNEPLQRPRYEVIQRAVNPHTMFMISGPLAELQLAFQDLDLPEGPLRFGPLANGHYVQGDPYSSSYRPVTMAETAQMTRDELEDVLNTQSEIEIQMINLLELYEVETRALRRQLAERS
modifications: N-terminal His-tag
For B2, the “Gag-Env binding (in words)” value [5] was “reduced binding to an undetectable level”.

B3: PFV-Gag-NtD: PFV-Gag residues 1–179, N-terminal His-tag fusion expressed in E. coli (protein, UniProt P14349 1-179, looked up, fragment)
chain: MASGSNVEEYELDVEALVVILRDRNIPRNPLHGEVIGLRLTEGWWGQIERFQMVRLILQDDDNEPLQRPRYEVIQRAVNPHTMFMISGPLAELQLAFQDLDLPEGPLRFGPLANGHYVQGDPYSSSYRPVTMAETAQMTRDELEDVLNTQSEIEIQMINLLELYEVETRALRRQLAERS
modifications: N-terminal His-tag
notes: PFV-Gag residues 1–179, N-terminal His-tag fusion expressed in E. coli
For B3, the “solution molecular weight (SEC-MALLS)” value [6] was 40.0 kDa, the “ƒ/ƒ0 (D20,w)” value [7] was 1.52 and the “ƒ/ƒ0 (S20,w)” value [7] was 1.48. For the same molecule, the “sedimentation coefficient S20,w” value [7] was 3.08, the “D20,w (×10^7)” value [7] was 5.96±0.04 cm^2 sec^−1 and the “Mw C(S)” value [7] was 48.2±1 kD. The “S20,w (×10^13)” value [7] was 3.08±0.02 sec, the “Mw (S/D)” value [7] was 46.7±0.2 kD and the “ƒ/ƒ0 C(S)” value [7] was 1.54. For the same molecule, the “weight averaged molecular weight, sedimentation equilibrium” value [8] was 44 kDa and the “Mw (sedimentation equilibrium)” value ([8]; Crange 30–100 µM, His-tagged) was 44±2 kD.

B4: Asn29 to glutamine (protein, UniProt P14349 1-179, looked up, variant N29Q)
chain: MASGSNVEEYELDVEALVVILRDRNIPRQPLHGEVIGLRLTEGWWGQIERFQMVRLILQDDDNEPLQRPRYEVIQRAVNPHTMFMISGPLAELQLAFQDLDLPEGPLRFGPLANGHYVQGDPYSSSYRPVTMAETAQMTRDELEDVLNTQSEIEIQMINLLELYEVETRALRRQLAERS
modifications: N-terminal His-tag
For B4, the “Gag-Env binding (in words)” value [5] was “little effect on Env binding”.

B5: Val14/Leu21 to serine (protein)
chain: MASGSNVEEYELDSEALVVISRDRNIPRNPLHGEVIGLRLTEGWWGQIERFQMVRLILQDDDNEPLQRPRYEVIQRAVNPHTMFMISGPLAELQLAFQDLDLPEGPLRFGPLANGHYVQGDPYSSSYRPVTMAETAQMTRDELEDVLNTQSEIEIQMINLLELYEVETRALRRQLAERS
modifications: left off: His-tag, N-terminal, state not stated
For B5, the “reduction of Gag-Env affinity (fold)” value ([5]; 75 µM equimolar Gag-NtD mutant and Env1–20, relative to wt PFV-Gag-NtD) was “twenty-fold”.

B6: FFV-Gag-NtD: FFV Gag residues 1–154, N-terminal His-tag fusion expressed in E. coli (protein, UniProt O56860 1-154, looked up, fragment)
chain: MARELNPLQLQQLYINNGLQPNPGHGDIIAVRFTGGPWGPGDRWARVTIRLQDNTGQPLQVPGYDLEPGIINLREDILIAGPYNLIRTAFLDLEPARGPERHGPFGDGRLQPGDGLSEGFQPITDEEIQAEVGTIGAARNEIRLLREALQRLQA
modifications: N-terminal His-tag
notes: FFV Gag residues 1–154, N-terminal His-tag fusion expressed in E. coli
With B6 the “solution molecular weight (SEC-MALLS)” value [6] was 34.0 kDa, the “ƒ/ƒ0 (D20,w)” value [7] was 1.42 and the “ƒ/ƒ0 (S20,w)” value [7] was 1.49. The “sedimentation coefficient S20,w” value [7] was 2.72, the “D20,w (×10^7)” value [7] was 6.81±0.3 cm^2 sec^−1 and the “Mw C(S)” value [7] was 37.4±1 kD. For the same molecule, the “S20,w (×10^13)” value [7] was 2.72±0.01 sec, the “Mw (S/D)” value [7] was 36.1±1.5 kD and the “ƒ/ƒ0 C(S)” value [7] was 1.47. For the same molecule, the “weight averaged molecular weight, sedimentation equilibrium” value [8] was 33.7 kDa and the “Mw (sedimentation equilibrium)” value ([8]; Crange 14–50 µM, FFV-154 sample with the His tag removed) was “^h33.7±1 kD”.

B7: PFV Env leader peptide residues 5-18 (peptide)
peptide: MTLQQWIIWKKMNK
notes: source: synthetic peptide, bought HPLC purified: Pepceuticals Ltd
In the case of B7, the Kd [9] is reported as 49.4 µM and the Ka [10] is reported as 20000 M⁻¹.
